Data as given in the nanobody polyreactivity screen of Harvey et al. (2022).

Experiment: yeast display, Sf9 membrane polyspecificity reagent, FACS + sequencing; frameworks hold sequencing errors
Outline: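 Nanobodies came from a synthetic yeast display library in Saccharomyces cerevisiae BJ5465, induced with galactose for 36–48 hours and stained for 1 hour at 4 °C with 10% biotinylated, detergent-solubilized Sf9 membrane reagent. Cells were enriched on streptavidin microbeads and then FACS-sorted, with low and high (top ~1%) gates set on anti-HA fluorescence for expression and streptavidin fluorescence for reagent binding. Each polyreactivity label reflects the gate a clone came from. Genes were amplified by colony PCR, sequenced by MiSeq 2 × 250 and filtered by CDR length.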

Sequence	polyreactivity (PSR sort gate)
QVQLVESGGGLVQAGGSLRLSGAASGFNLEPNAMGWYRQAPGKERELVATISFSGGGTYYADSVKGRFTISRDNAKNTVYLQMNSLKPEDTAVYYCAADWYYYVWWYDYWGQGTQVTVSS	high polyreactivity
QVQLVESGGGLVQAGGSLRLSGAASGFTFGRNAMGGYRQAPGKEREFVAAISKSATSKYYADSVKGRFTISRDNAKNTVYLQMNSLKPEDTSVYYCARTNYAKRWDFDYWGQGTQVTVSS	low polyreactivity
QVQLVESGGGLVQAGGSLRLSGAASGRTFGVYVMGWYRQAPGKERELVAAIDDSGGSTYYADSVKGRFTISRDNAKNTVYLQMNSLKPEDTAVYYCAADFYVVYWGTYSVGYDYWGQGTQVTVSS	low polyreactivity
QVQLVESGGGLVQAGGSLRLSGAASGSIFYSNAMGWSRQAPGKERELVAAITVRGGSTYYADSVKGRFTISRDNAKNTVYLQMNSLKQEDTAVYYCAAEYVSYSSYIYGYLGQGTQVTVSS	high polyreactivity
QVQLVESGGGLVQAGGSLRLSGAASGSTFRRNAMGWSRQAPGKERELVAAISRRGGRTYYADSVKGRFTISRDNAKNTVYLQLNSLKPEDTAVYYCAADVIYSGDYWGQGTQVTVSS	high polyreactivity
QVQLVESGGGLVQAGGSLRLSGAASGSTFVIYAMGWSRQAPGKERELVAAIRLGGGSTYYADSVKGRFTISRDNAKNTVYLQMNSLKPEDTEVYYCAAEVDQWYYRGYVYWGQGTQVTVSS	high polyreactivity
QVQLVESGGGLVQAGGSLRLSGDASGSIFVWYDMGWYRQAPGKERELVATISLSGVSTYYADSVKGRFTISRDNAKKTVYLQMNSLKPEDNAVYYCAADFVEQGEDDYCGQGTQVTVSS	low polyreactivity
QVQLVESGGGLVQAGGSLRLSLAASGRTFEYYAMGWYRQAPGKERELVAAITSGGITYYADSVKGRFTISRDNAKNTVYLQMNSLKPEDTAVYYCNDRHRYYRYGYWGQGSQVTVSS	high polyreactivity
QVQLVESGGGLVQAGGSLRLSLLPPDSPSTTMLWDGIDRRLGKKGSWLPVFLPSGGTTYADSVKGRFTISRDNAKNTVYLQMNSLKPEDTAVYYCAASYYRTRWSWMYYWGQGTQVTVSS	low polyreactivity
QVQLVESGGGLVQAGGSLRLSRAASGVIIYRYAMGWYRQAPGKERELVAAISRSGGSTYYADSVKGRFTISRDNAMNTVYLQMNCLKPEDTAVYYCAADRGSLAPGNDYWGQGTQVTVSS	high polyreactivity
QVQLVESGGGLVQAGGSLRLSRAATGSIIASYAMGWYRQAPGKERELVSAISARGGSTYYADSVKGRFTISRDNAKNTVYLQMNSLKPEDTAVYSCAARHQQGRRISDYGYWGQGTQVTVSS	high polyreactivity
QVQLVESGGGLVQAGGSLRLSRPASGFTYIYSVMGWYRQAPGKERELVAAINGRGDRKYYADSVKGRFTISRDNAKNTGYLQMNSLKPEDTAVYYCNARTHTWGYSAKFDYWGQGTQVTVSS	high polyreactivity
QVQLVESGGGLVQAGGSLRLSSAASGFIFAIYSMGWYRQAPGKERELVAAISRSGGRTYYADSVKGRFTISRDIAKNTVYLQMISLKPEDTAVYYCNARFQYRGVKYYYWGKGTQVTVSS	high polyreactivity
QVQLVESGGGLVQAGGSLRLSSAASGFILEPNAMGWYRQAPGKERELVAAITTSGGTYYADSVKGRFTISRDNAKNTVYLQMNSLKPEDTAVYYCNAVSTDSWAYHGDYWGQGTQVTVSS	low polyreactivity
QVQLVESGGGLVQAGGSLRLSSAASGFILRTNAMGWYRQAPGKERELVAAISVSGGRTYYADSVKGRFTISRDNAKNTVYLQMNSLKPEDTAVDYCAARDSTKLLSGYTHYYWGQGTQVTVSS	high polyreactivity
QVQLVESGGGLVQAGGSLRLSSAASGFIYRGNVMGWYRQAPGKERELVAAITWSGGSTYYADSVKGRFTISRDNAKNTVYLQMNSLKPDDTAVYYCNADLYIYEWYPALHSNDYWGQGSQVTVSS	low polyreactivity
QVQLVESGGGLVQAGGSLRLSSAASGFTFVTYSKGWNRQATGKERELVAAISIRGGSTYADSVKGRFTISRDNAKNSVYLQMNSLKPEDTAVYSCATGRALEYNYWGQGTQVTVSS	low polyreactivity
QVQLVESGGGLVQAGGSLRLSSAASGFTLDWYVIGWYRKAPWKERELVAAISSSGGRTYYADSVKGRFTISRDNAKNTVYLQMNSLKPEDTAVYYCAARNIYGGYPYGYDYWGQGTQVTVSS	high polyreactivity
QVQLVESGGGLVQAGGSLRLSSAASGHHFRTNAMGWYRQAPGKERELVAVINIGGASTYYADSVKGRFTISRDNAKNTVNLQMNSLKPEDTAVYYCAQEFYDGYFPTFDYDYWGQGTQVTVSS	low polyreactivity
QVQLVESGGGLVQAGGSLRLSSAASGIIFTFNAMRWYRQAPGKEMELVAGISLGGSSTNYADSVKGRFTISRDNAKNTVYLQMNSLKPEDTAVYYCAAYVDIVGDYWVVGYYYWGQGTQVTVSS	low polyreactivity
QVQLVESGGGLVQAGGSLRLSSAASGITFDVNVMGWYRQAPRKERELVAAIRRGDSTDYADSVKGRFSISRDNEKNTVYLQMKSLKPEDTAVYYCAADDSGYELRAYTWPYFGYDYWGQGTQVTVSS	low polyreactivity
QVQLVESGGGLVQAGGSLRLSSAASGITFYDYAMGWSRPSPGKERELVAAINSSGVRTYYADSVKGRFTISRDNAKNTVYLQMKSLNPEYTAVYYCAAKLVYGGRYGYWGQGTQVTVSS	high polyreactivity

Sequence	polyreactivity (PSR sort gate)
QVQLVESGGGLVQAGGSLRLSSAASGITFYGYARGWYRQPPGKEREFVAAISYSGGSTYYADSVKGRFTISRDNAKNTVYLQMNSLKPEDTAVYYCAARVGRSLYGYWGLGTQVTVSS	high polyreactivity
QVQLVESGGGLVQAGGSLRLSSAASGLIFFTYAMGWYRQAPGKERELVATISRGGRTKYADSVKGRFTISRDNAKNSVYLQMNSLKPEDTAVYYCAAYLSRSYYAYDYWGQGTQVTVSS	high polyreactivity
QVQLVESGGGLVQAGGSLRLSSAASGNIFTYNAMGWYRPARGTERELVAAISSGGSTNYADSVKGRFTISRHNAKNTVYLQLNSLKPEDTAVYYCAADLTISYSQEYYYWGQGTQETVSS	low polyreactivity
QVQLVESGGGLVQAGGSLRLSSAASGRIFAVYAMGLYRQAPGKERELVAAINWNDGSTYYADSVKGRFTISRDNAKNTVYLQMNSLKPEDTAVYYCAARALSRSVYGKSGYKYGYWGQGTQVTVSS	high polyreactivity
QVQLVESGGGLVQAGGSLRLSSAASGRIFDGNAMGGYRQAPGTERELVATINRGARTNYADSVKGRFTISRDNAKNTVYLQMNSLKPEDTAVYYCATSYPGYAYNQAWYPYGYWGQGTQVTVSS	low polyreactivity
QVQLVESGGGLVQAGGSLRLSSAASGRIFDYYAMGWYRQAPGKESELVAAISSGSSTNYADSVKGRFTISRDNAKNTFYLQMNSLKPEDTAVYYCAATYGYLRRNHYNYWGQGTQVTVSS	high polyreactivity
QVQLVESGGGLVQAGGSLRLSSAASGRIFGFNAMGWYRPAPGKERELVAAITWGVGSTYYADSVKGRFTISRDNAKNTVYLQMNSLKPEDTAVYYCAAVSYAAVYGFDYWGQGTQVTVSS	high polyreactivity
QVQLVESGGGLVQAGGSLRLSSAASGRIFGYNAMGWYRQAPGKERELVAVITYRGTSTYYADSVKGRFTISRDNAKNTVYLQMNSLKPEDTAVYYCAAVNGGYWRYYYWGQGTQVTVSS	high polyreactivity
QVQLVESGGGLVQAGGSLRLSSAASGRIFNSYAMGWYRQAPGKERELVAIIRSSGTTYYADSVKGRFTISRDNAKNSVYVQMNSLKPEDTAVYDCAADPYYWRQFNYDYWGHGTQVTVSS	high polyreactivity
QVQLVESGGGLVQAGGSLRLSSAASGRIFNWYTMGWYRQSPGKERELVAAITSGGTTTYYADSVKGRFTISRDNAKNTVYLQMTSLKPEDTAVYYCAARRGGRRGYDYWGQGTQVTVSS	high polyreactivity
QVQLVESGGGLVQAGGSLRLSSAASGRIFPYYAMGWYRQAPGKETELVATISSGGRTNYADSVKGRFTISRDNAKYTVYLQMNSLKPEDTAVYYCAADYRKSRVFYGLYYWGQGTQVTVSS	high polyreactivity
QVQLVESGGGLVQAGGSLRLSSAASGRIFVGYAKGWYIQAPGKERELVAGIRYSGGSTYYADSVKGRFTISRDNAKNTVYLQMNSLKPEDTAVYYCATQVWHYAGRPNYKYDYWGQGTQVTVSS	low polyreactivity
QVQLVESGGGLVQAGGSLRLSSAASGRIFVNYAMGSSRQAPGKERELVAAITSDGSTSYADSVNGRFTISRDNAKNTVFLEMNSLKPEDTAVYYCAKGQRDREEYDYWGQGTQVTVSS	low polyreactivity
QVQLVESGGGLVQAGGSLRLSSAASGRTFAVYTMRWYRQAPGKEREFVARIRYSGGNTYYADSVKRRFTLSRDNAKNTVYLQMNSLKPEDTAVYSCAARSRYRVYGSRNFDYWGQGSQVTVSS	high polyreactivity
QVQLVESGGGLVQAGGSLRLSSAASGRTFFRYAMGWYRQAPGKERELVAAITWSGGTTYYADSVKGRFTISRDNAKNTVYLQMNSLKPEDTAVYYCNGRGLWYRRVVTYGYWGQGTQVTVSS	high polyreactivity
QVQLVESGGGLVQAGGSLRLSSAASGRTFGWNSMGWYRHAPGKERELVAAISRTGNTYYADSVKGRFTISRDNAKNTVYLQMNSLKPEDTAVYYCAKGRYYTPTYFRGVDLYDYWGQGTQVTVSS	low polyreactivity
QVQLVESGGGLVQAGGSLRLSSAASGRTFRGYAMGWYRQAPGKERELVAAISVTGSSTNYAYSVKGRFTISRDNAKNTVYLQMNRLKPEDTAVYDCNAKRVRYSLSYDYWGQGTQVTVSS	high polyreactivity
QVQLVESGGGLVQAGGSLRLSSAASGRTFYYYAMGWYRQAPGKERELVAAITSRGTSTYYADSVKGRFTISRDNAKNTVYLQMNSLKPEDTAVFYCAAGFICYYGNGYDYWGQGTQVTVSS	high polyreactivity
QVQLVESGGGLVQAGGSLRLSSAASGRTLASYAIGWYRQAPGQESELVAAISKRGGGTYYADSVKGRFTISRDNAKNTVYLQMNSLKPEDTAVYYCAKGTGYKPVVTTHPMDYWGQGTQVTVSS	high polyreactivity
QVQLVESGGGLVQAGGSLRLSSAASGRTLFDNAMGWYRQAPGKEREWVAAIRSDGNTNYADSVKGRFTISRDNAKNTVYLQMNSLKPEDTAVYYCNARSYVGSSRDNYWGQGTQVTVSS	low polyreactivity
QVQLVESGGGLVQAGGSLRLSSAASGRTLRGYAMGWYRQAPGKERELVAAITWSGGSTYYADSVKGRFTISRDNAKNTVYLQMNSLKPEDTAVYYCNARSYPDLYDYWGQGTQVTVSS	low polyreactivity
